Publication PMC3498625

Target: Wza from E. coli K30, purified DDM-solubilised octameric complex (E. coli K30)
Experiment: cryo-EM structure

Q: With “Wza from E. coli K30, purified DDM-solubilised octameric complex (natural protein)” as the substance, how does the stoichiometry N read?
A: 8
